Experimental data published in the supplement of paper PMC11908140.

B1: library; numbered along this chain (parent)
chain: MRKPRAAVGSGHRKQAASQEGRQKHAKNNSQAKPSACDGLARQPEEVVLQASVSSYHLFRDVAEVTAFRGSLLSWYDQEKRDLPWRRRAEDEMDLDRRAYAVWVSEVMLQQTQVATVINYYTGWMQKWPTLQDLASASLEEVNQLWAGLGYYSRGRRLQEGARKVVEELGGHMPRTAETLQQLLPGVGRYTAGAIASIAFGQATGVVDGNVARVLCRVRAIGADPSSTLVSQQLWGLAQQLVDPARPGDFNQAAMELGATVCTPQRPLCSQCPVESLCRARQRVEQEQLLASGSLSGSPDVEECAPNTGQCHLCLPPSEPWDQTLGVVNFPRKASRKPPREESSATCVLEQPGALGAQILLVQRPNSGLLAGLWEFPSVTWEPSEQLQRKALLQELQRWAGPLPATHLRHLGEVVHTFSHIKLTYQVYGLALEGQTPVTTVPPGARWLTQEEFHTAAVSTAMKKVFRVYQGQQPGTCMGSKRSQVSSPCSRKKPRMGQQVLDNFFRSHISTDAHSLNSAAQ

Variants of: B1
Assay: 8OG:A repair function score (normalized; synonymous = 0, nonsense = -1) (normalized log-likelihood score); higher = more repair activity (WT-like)
Settings: with 8OG:A DNA repair reporter (GFP) in HEK-293 MUTYH KO cells
Description: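 Saturation mutagenesis (NNN codon scan) of the MUTYH cDNA (521-aa nuclear isoform NM_001048174.1 / NP_001041639), stably expressed under doxycycline induction in HEK-293 MUTYH knockout cells. Cells were co-transfected with an 8OG:A-bearing GFP repair reporter plus mCherry and sorted 72 h later into GFP+ and GFP− bins, three replicates per tile. The Rosace log2 enrichment (GFP+ vs GFP−) was converted per tile to a normalized function score with synonymous variants centered at 0 and nonsense variants (codons 1-471) at -1; low-abundance variants were removed.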

Variant | 8OG:A repair function score
F200Q | -0.502
Q435P | 0.288
V468D | -0.647
Q78V | 0.00652
Q78F | -0.0455
V62F | 0.00406
C304A | -0.225
R409H | -0.288
V301T | -0.284
A445I | -0.318
R2W | -0.00849
A36D | -0.0511
Q159E | -0.416
E79M | -0.00235
R283L | -0.0781
D208Q | -1.01
A63F | -0.142
G412H | -0.792
E167V | -0.0209
V214C | -0.56
L58A | 0.00209

Variant | 8OG:A repair function score
L184Y | -0.855
L184W | -1.13
G193H | -0.0997
T176R | -0.102
L387M | 0.0425
P225G | -0.342
P225E | -0.604
P129M | -0.298
M108W | -1.11
Y121D | -0.798
S384E | 0.0681
V328W | -0.0588
Q386T | -0.191
E342L | 0.0472
Q363E | -0.341
G209I | -0.359
I198A | -0.548
I198R | -0.575
I198Y | -0.792
R467P | -0.876
R467K | -0.0257

Variant | 8OG:A repair function score
A203H | 0.0237
R332I | -0.256
T417L | -0.0186
S296V | 0.0116
I509T | 0.026
P174N | -0.958
S487R | 0.0273
L355V | -0.0573
R163G | -0.378
P339V | -0.0967
P338D | -0.0378
Q351P | -0.756
D82N | 0.00375
Y428M | -0.656
H407L | -0.0178
Q233Y | 0.0243
P185S | -0.221
W235K | -0.51
T455G | -0.211
E350L | -0.12
L215G | -0.867

Variant | 8OG:A repair function score
V47Q | -0.0401
V47I | 0.0706
S276A | 0.0102
S276P | -0.0133
G429W | -0.114
G429C | 0.227
V53A | 0.00104
P84K | -0.876
P84N | -0.796
S270P | -0.0287
H57K | -0.664
E452A | -0.387
N210I | -1
R219Q | -0.682
G188P | -0.845
A371M | -0.439
P365A | -0.0399
P365D | 0.00966
R156D | -0.477
R156L | -0.142
